Source: patent US20150018278

How the values were obtained:
[1] = system: constitutively active form of chicken E2F4 (Thr261Glu/Thr263Glu)
[2] = system: chicken transcription factor E2F4
[3] = system: negative dominant form of chicken E2F4 (Thr261Ala/Thr263Ala)
Chain of negative dominant form of chicken E2F4 (Thr261Ala/Thr263Ala) (chain, as listed by the source T261A T263A): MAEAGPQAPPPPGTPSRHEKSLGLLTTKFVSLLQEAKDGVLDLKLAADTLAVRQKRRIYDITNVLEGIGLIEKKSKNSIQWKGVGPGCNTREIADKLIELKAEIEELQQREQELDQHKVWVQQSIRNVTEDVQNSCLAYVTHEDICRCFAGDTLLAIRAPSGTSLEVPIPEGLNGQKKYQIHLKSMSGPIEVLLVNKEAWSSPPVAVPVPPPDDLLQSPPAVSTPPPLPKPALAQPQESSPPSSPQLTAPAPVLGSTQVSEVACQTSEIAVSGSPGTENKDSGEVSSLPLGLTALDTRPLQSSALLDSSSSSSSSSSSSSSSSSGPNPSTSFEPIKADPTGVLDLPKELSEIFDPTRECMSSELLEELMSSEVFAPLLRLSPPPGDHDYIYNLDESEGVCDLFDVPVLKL

Chain of constitutively active form of chicken E2F4 (Thr261Glu/Thr263Glu) (chain, as listed by the source T261E T263E): as the sequence (chain, as listed by the source T261A T263A) above, with A249E, A251E counted along it
Chain of chicken transcription factor E2F4 (chain, as listed by the source): as the sequence (chain, as listed by the source T261A T263A) above, with A249T, A251T counted along it

Substance: p38^MAPK
- incorporation of BrdU [1]: The incorporation of BrdU increases significantly in cells transfected with the constitutively active form of E2F4 (E2F4-CA), an effect that can be observed even in the presence of selective p38^MAPK inhibitor SB203580 (used at 5 µM)
- phosphorylation on threonine residues of E2F4 (Western blot with anti-phosphoThr antibodies in extracts immunoprecipitated with anti-E2F4 antibodies) [2]: The presence of NGF can be seen to involve an increase in phosphorylation on threonine residues, while the presence of p38^MAPK inhibitor inhibits such phosphorylation.
- incorporation of BrdU [3]: The expression of the negative dominant form of E2F4 (E2F4-ND) prevents the effect of 100 ng/ml NGF on the incorporation of BrdU in retinal neurogenic cultures.
